Test results taken from patent US12679878B2, “CRF2 receptor agonists and their use in therapy” (SANOFI, priority 2020, dated 2026).
Starred links: 1 amine or outer side, 2 acyl side, 3 side chain; linkers in the order of their positions; H or OH if unused. Non-standard residues stand in square brackets, D forms with d. Groups on a side chain read outwards from the residue. No end group written: not given here. *: point of attachment. C18 diacid = O=C(O)CCCCCCCCCCCCCCCCC(=O)*; γGlu = O=C(O)[C@H](CCC(=O)[*:2])N[*:1]; AEEA = NCCOCCOCC(=O)O; Aib = CC(C)(N)C(=O)O

T1: anti-target CRF1R receptor (UniProt P34998 24-415, limits assumed)
T1 sequence (looked up): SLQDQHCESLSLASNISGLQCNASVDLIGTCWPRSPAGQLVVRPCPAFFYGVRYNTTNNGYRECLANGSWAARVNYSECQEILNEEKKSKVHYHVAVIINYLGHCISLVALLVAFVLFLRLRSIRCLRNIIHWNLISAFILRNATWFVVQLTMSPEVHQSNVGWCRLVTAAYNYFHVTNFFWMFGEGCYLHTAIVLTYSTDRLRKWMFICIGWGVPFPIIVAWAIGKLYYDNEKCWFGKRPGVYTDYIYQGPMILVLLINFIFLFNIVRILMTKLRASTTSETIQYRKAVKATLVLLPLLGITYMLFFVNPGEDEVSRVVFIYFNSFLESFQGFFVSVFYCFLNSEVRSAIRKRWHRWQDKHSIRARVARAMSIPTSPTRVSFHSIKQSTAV

T2: endogenous human CRF2 (NCI-H82 cells) (human, UniProt Q13324 20-411)
T2 sequence (looked up): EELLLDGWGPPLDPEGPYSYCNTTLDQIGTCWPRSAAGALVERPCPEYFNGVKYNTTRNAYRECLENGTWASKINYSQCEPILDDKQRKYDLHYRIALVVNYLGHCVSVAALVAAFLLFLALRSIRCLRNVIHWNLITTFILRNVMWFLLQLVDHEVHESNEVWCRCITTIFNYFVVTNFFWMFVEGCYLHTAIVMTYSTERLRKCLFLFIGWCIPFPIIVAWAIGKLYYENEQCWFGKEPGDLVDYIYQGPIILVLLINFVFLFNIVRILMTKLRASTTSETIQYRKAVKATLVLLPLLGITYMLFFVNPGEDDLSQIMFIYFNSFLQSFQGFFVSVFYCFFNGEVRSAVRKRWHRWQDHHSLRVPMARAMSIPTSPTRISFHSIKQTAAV


Key:
Assay in all cases: cell-based or functional assay
rat CRF2R α receptor = rat CRF2R α receptor (rat, UniProt P47866 20-411)
[1] = molecular target: T1, anti-target CRF1R receptor
[2] = molecular target: T2, endogenous human CRF2 (NCI-H82 cells)

| Binder | EC50 [nM], 0% HSA (cAMP, A7R5 cells) (rat CRF2R α receptor) | EC50[nM] 0% HSA (cAMP, CRF1R-overexpression CHO cells) [1] | Emax (%) (cAMP, CRF1R-overexpression CHO cells) [1] | EC50 [nM] (cAMP, NCI-H82 cells) [2] |
| --- | --- | --- | --- | --- |
| IVLSLD[dV]PIKLK([AEEA-AEEA-γGlu-C18 diacid])QILLKQERQKKQREKAEKNKQILAQV-NH2 (N-terminus assumed; SMILES CC[C@H](C)[C@H](N)C(=O)N[C@H](C(=O)N[C@@H](CC(C)C)C(=O)N[C@@H](CO)C(=O)N[C@@H](CC(C)C)C(=O)N[C@@H](CC(=O)O)C(=O)N[C@@H](C(=O)N1CCC[C@H]1C(=O)N[C@H](C(=O)N[C@@H](CCCCN)C(=O)N[C@@H](CC(C)C)C(=O)N[C@@H](CCCCNC(=O)COCCOCCNC(=O)COCCOCCNC(=O)CC[C@H](NC(=O)CCCCCCCCCCCCCCCCC(=O)O)C(=O)O)C(=O)N[C@@H](CCC(N)=O)C(=O)N[C@H](C(=O)N[C@@H](CC(C)C)C(=O)N[C@@H](CC(C)C)C(=O)N[C@@H](CCCCN)C(=O)N[C@@H](CCC(N)=O)C(=O)N[C@@H](CCC(=O)O)C(=O)N[C@@H](CCCNC(=N)N)C(=O)N[C@@H](CCC(N)=O)C(=O)N[C@@H](CCCCN)C(=O)N[C@@H](CCCCN)C(=O)N[C@@H](CCC(N)=O)C(=O)N[C@@H](CCCNC(=N)N)C(=O)N[C@@H](CCC(=O)O)C(=O)N[C@@H](CCCCN)C(=O)N[C@@H](C)C(=O)N[C@@H](CCC(=O)O)C(=O)N[C@@H](CCCCN)C(=O)N[C@@H](CC(N)=O)C(=O)N[C@@H](CCCCN)C(=O)N[C@@H](CCC(N)=O)C(=O)N[C@H](C(=O)N[C@@H](CC(C)C)C(=O)N[C@@H](C)C(=O)N[C@@H](CCC(N)=O)C(=O)N[C@H](C(N)=O)C(C)C)[C@@H](C)CC)[C@@H](C)CC)[C@@H](C)CC)C(C)C)C(C)C) [peptide of SEQ ID NO: 138] | 0.26 nM | > 1000 nM | 4.38% | 8.4 nM |
| IVLSLD[dV]PIKLK([AEEA-AEEA-γGlu-C18 diacid])QILLKQERQKKQRQQAEKNKQILAQV-NH2 (N-terminus assumed; SMILES CC[C@H](C)[C@H](N)C(=O)N[C@H](C(=O)N[C@@H](CC(C)C)C(=O)N[C@@H](CO)C(=O)N[C@@H](CC(C)C)C(=O)N[C@@H](CC(=O)O)C(=O)N[C@@H](C(=O)N1CCC[C@H]1C(=O)N[C@H](C(=O)N[C@@H](CCCCN)C(=O)N[C@@H](CC(C)C)C(=O)N[C@@H](CCCCNC(=O)COCCOCCNC(=O)COCCOCCNC(=O)CC[C@H](NC(=O)CCCCCCCCCCCCCCCCC(=O)O)C(=O)O)C(=O)N[C@@H](CCC(N)=O)C(=O)N[C@H](C(=O)N[C@@H](CC(C)C)C(=O)N[C@@H](CC(C)C)C(=O)N[C@@H](CCCCN)C(=O)N[C@@H](CCC(N)=O)C(=O)N[C@@H](CCC(=O)O)C(=O)N[C@@H](CCCNC(=N)N)C(=O)N[C@@H](CCC(N)=O)C(=O)N[C@@H](CCCCN)C(=O)N[C@@H](CCCCN)C(=O)N[C@@H](CCC(N)=O)C(=O)N[C@@H](CCCNC(=N)N)C(=O)N[C@@H](CCC(N)=O)C(=O)N[C@@H](CCC(N)=O)C(=O)N[C@@H](C)C(=O)N[C@@H](CCC(=O)O)C(=O)N[C@@H](CCCCN)C(=O)N[C@@H](CC(N)=O)C(=O)N[C@@H](CCCCN)C(=O)N[C@@H](CCC(N)=O)C(=O)N[C@H](C(=O)N[C@@H](CC(C)C)C(=O)N[C@@H](C)C(=O)N[C@@H](CCC(N)=O)C(=O)N[C@H](C(N)=O)C(C)C)[C@@H](C)CC)[C@@H](C)CC)[C@@H](C)CC)C(C)C)C(C)C) [peptide of SEQ ID NO: 139] | 0.1 nM | > 1000 nM | 37.6% | 18 nM |

Second part, the binder after the results:

| EC50 [nM], 0% HSA (cAMP, A7R5 cells) (rat CRF2R α receptor) | EC50[nM] 0% HSA (cAMP, CRF1R-overexpression CHO cells) [1] | Emax (%) (cAMP, CRF1R-overexpression CHO cells) [1] | EC50 [nM] (cAMP, NCI-H82 cells) [2] | Binder |
| --- | --- | --- | --- | --- |
| 2.53 nM | > 1000 nM | 4.54% | 13 nM | IVLSLD[dV]PIGLK([AEEA-AEEA-γGlu-C18 diacid])QILLKQERQKK[Aib]REQAETNKQILAQV-NH2 (N-terminus assumed; SMILES CC[C@H](C)[C@H](N)C(=O)N[C@H](C(=O)N[C@@H](CC(C)C)C(=O)N[C@@H](CO)C(=O)N[C@@H](CC(C)C)C(=O)N[C@@H](CC(=O)O)C(=O)N[C@@H](C(=O)N1CCC[C@H]1C(=O)N[C@H](C(=O)NCC(=O)N[C@@H](CC(C)C)C(=O)N[C@@H](CCCCNC(=O)COCCOCCNC(=O)COCCOCCNC(=O)CC[C@H](NC(=O)CCCCCCCCCCCCCCCCC(=O)O)C(=O)O)C(=O)N[C@@H](CCC(N)=O)C(=O)N[C@H](C(=O)N[C@@H](CC(C)C)C(=O)N[C@@H](CC(C)C)C(=O)N[C@@H](CCCCN)C(=O)N[C@@H](CCC(N)=O)C(=O)N[C@@H](CCC(=O)O)C(=O)N[C@@H](CCCNC(=N)N)C(=O)N[C@@H](CCC(N)=O)C(=O)N[C@@H](CCCCN)C(=O)N[C@@H](CCCCN)C(=O)NC(C)(C)C(=O)N[C@@H](CCCNC(=N)N)C(=O)N[C@@H](CCC(=O)O)C(=O)N[C@@H](CCC(N)=O)C(=O)N[C@@H](C)C(=O)N[C@@H](CCC(=O)O)C(=O)N[C@H](C(=O)N[C@@H](CC(N)=O)C(=O)N[C@@H](CCCCN)C(=O)N[C@@H](CCC(N)=O)C(=O)N[C@H](C(=O)N[C@@H](CC(C)C)C(=O)N[C@@H](C)C(=O)N[C@@H](CCC(N)=O)C(=O)N[C@H](C(N)=O)C(C)C)[C@@H](C)CC)[C@@H](C)O)[C@@H](C)CC)[C@@H](C)CC)C(C)C)C(C)C) [peptide of SEQ ID NO: 147] |
| 0.49 nM | > 1000 nM | 9.07% | 7.4 nM | IVLSLD[dV]PIGLK([AEEA-AEEA-γGlu-C18 diacid])QILLKQERQKK[Aib]REQAEKNKRILERV-NH2 (N-terminus assumed; SMILES CC[C@H](C)[C@H](N)C(=O)N[C@H](C(=O)N[C@@H](CC(C)C)C(=O)N[C@@H](CO)C(=O)N[C@@H](CC(C)C)C(=O)N[C@@H](CC(=O)O)C(=O)N[C@@H](C(=O)N1CCC[C@H]1C(=O)N[C@H](C(=O)NCC(=O)N[C@@H](CC(C)C)C(=O)N[C@@H](CCCCNC(=O)COCCOCCNC(=O)COCCOCCNC(=O)CC[C@H](NC(=O)CCCCCCCCCCCCCCCCC(=O)O)C(=O)O)C(=O)N[C@@H](CCC(N)=O)C(=O)N[C@H](C(=O)N[C@@H](CC(C)C)C(=O)N[C@@H](CC(C)C)C(=O)N[C@@H](CCCCN)C(=O)N[C@@H](CCC(N)=O)C(=O)N[C@@H](CCC(=O)O)C(=O)N[C@@H](CCCNC(=N)N)C(=O)N[C@@H](CCC(N)=O)C(=O)N[C@@H](CCCCN)C(=O)N[C@@H](CCCCN)C(=O)NC(C)(C)C(=O)N[C@@H](CCCNC(=N)N)C(=O)N[C@@H](CCC(=O)O)C(=O)N[C@@H](CCC(N)=O)C(=O)N[C@@H](C)C(=O)N[C@@H](CCC(=O)O)C(=O)N[C@@H](CCCCN)C(=O)N[C@@H](CC(N)=O)C(=O)N[C@@H](CCCCN)C(=O)N[C@@H](CCCNC(=N)N)C(=O)N[C@H](C(=O)N[C@@H](CC(C)C)C(=O)N[C@@H](CCC(=O)O)C(=O)N[C@@H](CCCNC(=N)N)C(=O)N[C@H](C(N)=O)C(C)C)[C@@H](C)CC)[C@@H](C)CC)[C@@H](C)CC)C(C)C)C(C)C) [peptide of SEQ ID NO: 151] |
